We go through 5 molecules from patent US11136633.

Assay [1] addresses T1, 5T4 (on 5T4-expressing MDA-MB-468 cells) (human, UniProt Q13641 32-420).
T1 sequence (looked up): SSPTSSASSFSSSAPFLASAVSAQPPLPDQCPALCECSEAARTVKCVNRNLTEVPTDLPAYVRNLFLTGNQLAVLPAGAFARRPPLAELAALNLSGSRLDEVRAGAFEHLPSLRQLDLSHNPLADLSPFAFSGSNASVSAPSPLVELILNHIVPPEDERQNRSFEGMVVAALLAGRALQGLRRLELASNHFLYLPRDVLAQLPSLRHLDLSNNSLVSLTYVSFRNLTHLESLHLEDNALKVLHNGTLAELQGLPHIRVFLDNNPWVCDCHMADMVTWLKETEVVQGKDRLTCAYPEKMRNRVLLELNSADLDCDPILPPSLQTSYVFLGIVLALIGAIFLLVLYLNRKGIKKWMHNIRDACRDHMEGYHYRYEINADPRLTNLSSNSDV
Description: cell-based or functional assay.

Assay [2] has as its target T1, 5T4 (on 5T4-expressing MDA-MB-468 cells). Description: cellular binding on 5T4-expressing MDA-MB-468 cells.
In assay [3] the target is T2, PSMA (on PSMA-expressing LNCaP-C4.2 cells) (human, UniProt Q04609 1-750). Kind of assay: cell-based or functional assay.
T2 sequence (Q04609 whole entry): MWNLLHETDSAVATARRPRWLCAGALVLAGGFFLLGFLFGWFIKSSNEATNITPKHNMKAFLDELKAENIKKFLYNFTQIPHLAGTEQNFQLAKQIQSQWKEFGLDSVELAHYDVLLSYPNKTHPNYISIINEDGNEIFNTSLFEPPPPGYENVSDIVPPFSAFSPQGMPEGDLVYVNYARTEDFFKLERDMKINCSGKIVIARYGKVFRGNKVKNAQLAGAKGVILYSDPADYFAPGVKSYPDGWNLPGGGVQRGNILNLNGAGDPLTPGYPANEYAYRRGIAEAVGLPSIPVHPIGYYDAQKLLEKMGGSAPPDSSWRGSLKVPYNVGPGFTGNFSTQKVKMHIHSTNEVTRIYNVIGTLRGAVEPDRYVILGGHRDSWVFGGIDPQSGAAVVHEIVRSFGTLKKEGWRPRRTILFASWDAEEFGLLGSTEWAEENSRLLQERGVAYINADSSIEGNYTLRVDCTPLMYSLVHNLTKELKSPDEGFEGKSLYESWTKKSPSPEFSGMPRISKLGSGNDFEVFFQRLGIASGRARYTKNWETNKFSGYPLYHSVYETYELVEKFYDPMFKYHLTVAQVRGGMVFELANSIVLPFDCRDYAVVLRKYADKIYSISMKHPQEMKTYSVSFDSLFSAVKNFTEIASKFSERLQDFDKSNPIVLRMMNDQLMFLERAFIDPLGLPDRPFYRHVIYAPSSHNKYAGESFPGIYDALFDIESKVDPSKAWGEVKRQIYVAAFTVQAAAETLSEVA
Assay [4] has as its target T2, PSMA (on PSMA-expressing LNCaP-C4.2 …). Kind of assay: cell-based or functional assay. The source holds these as a separate data set.

Numbering of substitutions follows the chain as printed. Names may count otherwise. Where two headings read alike, the source gives them in different places.

B1: H8-HC40, engineered cysteine anti-5T4 (HC S40C) H8 antibody conjugated to vc-seco-DUBA (antibody, human IgG1, kappa, V domains shown)
VH: QVQLVQSGAEVKKPGASVKVSCKASGYSFTGYYMHWVKQCPGQGLEWIGRINPNNGVTLYNQKFKDRVTMTRDTSISTAYMELSRLRSDDTAVYYCARSTMITNYVMDYWGQGTLVTVSS
VL: DIVMTQSPDSLAVSLGERATINCKASQSVSNDVAWYQQKPGQSPKLLISYTSSRYAGVPDRFSGSGSGTDFTLTISSLQAEDVAVYFCQQDYNSPPTFGGGTKLEIKR
modifications: vc-seco-DUBA linker drug on engineered Cys 40; average DAR 1.7
On to B1, for which, in assay [1], the “% efficacy, in vitro cytotoxicity on MDA-MB-468 at ~100 nM” value came to 88% and the “IC50, in vitro cytotoxicity on 5T4-positive cell line MDA-MB-468” value is 0.07 nM.

B2: H8-HC41, engineered cysteine anti-5T4 (VH P41C) H8 antibody conjugated to vc-seco-DUBA (antibody, human IgG1, kappa, V domains shown)
VH: B1 VH with C40S, P41C
VL: B1 VL
modifications: vc-seco-DUBA linker drug on engineered Cys 41; average DAR 1.7
As to B2, in assay [1], the “% efficacy, in vitro cytotoxicity on MDA-MB-468 at ~100 nM” value was found to be 88% and the “IC50, in vitro cytotoxicity on 5T4-positive cell line MDA-MB-468” value came to 0.07 nM.

B3: wild-type H8 antibody (anti-5T4) (antibody, human IgG1, kappa, V domains shown)
VH: B1 VH with C40S
VL: B1 VL
notes: Naked antibody, human IgG1 kappa
Consider B3, for which the binding result in assay [2] is “binds”.

B4: ADC-HC41 (SYD1091), engineered cysteine anti-PSMA (VH S41C) antibody conjugated to vc-seco-DUBA (antibody, human IgG1, kappa, V domains shown)
VH: EVQLVQSGAEVKKPGASVKISCKTSGYTFTEYTIHWVKQACGKGLEWIGNINPNNGGTTYNQKFEDRATLTVDKSTSTAYMELSSLRSEDTAVYYCAAGWNFDYWGQGTTVTVSS
VL: DIVMTQSPSSLSASVGDRVTITCKASQDVGTAVDWYQQKPGKAPKLLIYWASTRHTGVPDRFTGSGSGTDFTLTISSLQPEDFADYFCQQYNSYPLTFGGGTKLEIKR
modifications: vc-seco-DUBA linker drug on engineered Cys 41 (Kabat numbering); average DAR 1.7
Turning to B4, in assay [3], the “IC50, in vitro cytotoxicity on PSMA-positive cell line LNCaP-C4.2” value came out at 0.25 nM.

B5: ADC-HC41 (vc-MMAE), anti-PSMA antibody (HC S41C) conjugated to vc-MMAE (antibody, human IgG1, kappa, V domains shown)
VH: B4 VH
VL: B4 VL
modifications: vc-MMAE linker drug on engineered Cys 41 (Kabat numbering); average DAR 1.8
As for B5, the “IC50, in vitro cytotoxicity on PSMA-positive cell line LNCaP-C4.2” value in assay [4] was determined as 0.39 nM.
